Assay results from article PMC12817190.

How the values were obtained:
human fibrin (human) = human fibrin (human) (UniProt P02671)
porcine fibrin (porcine) = porcine fibrin (porcine) (UniProt P14460)

Sequence of UniProt P02671 (P02671 36-866, chain 1 of 3): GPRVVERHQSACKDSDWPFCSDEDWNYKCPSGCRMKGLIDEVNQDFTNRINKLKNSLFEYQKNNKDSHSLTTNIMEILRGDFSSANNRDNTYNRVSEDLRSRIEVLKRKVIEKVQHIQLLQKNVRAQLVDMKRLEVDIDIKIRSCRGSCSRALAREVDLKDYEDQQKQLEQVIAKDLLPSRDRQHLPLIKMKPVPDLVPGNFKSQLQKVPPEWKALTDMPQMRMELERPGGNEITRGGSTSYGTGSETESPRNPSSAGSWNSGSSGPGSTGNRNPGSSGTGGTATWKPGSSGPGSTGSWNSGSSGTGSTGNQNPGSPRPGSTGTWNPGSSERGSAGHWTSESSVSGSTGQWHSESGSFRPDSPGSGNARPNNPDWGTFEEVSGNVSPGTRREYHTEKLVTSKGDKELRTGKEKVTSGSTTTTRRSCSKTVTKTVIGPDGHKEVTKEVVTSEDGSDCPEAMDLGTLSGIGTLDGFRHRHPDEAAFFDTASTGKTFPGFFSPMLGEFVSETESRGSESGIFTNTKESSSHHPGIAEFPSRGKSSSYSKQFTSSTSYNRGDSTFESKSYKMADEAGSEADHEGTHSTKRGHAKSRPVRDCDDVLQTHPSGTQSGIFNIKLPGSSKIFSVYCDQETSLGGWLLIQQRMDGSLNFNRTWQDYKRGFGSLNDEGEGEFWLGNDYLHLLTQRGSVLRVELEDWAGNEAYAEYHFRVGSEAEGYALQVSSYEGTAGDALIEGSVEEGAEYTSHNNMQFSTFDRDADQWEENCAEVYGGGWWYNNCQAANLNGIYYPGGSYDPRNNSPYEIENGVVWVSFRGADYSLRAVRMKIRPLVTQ
Sequence of UniProt P02671 (P02675 45-491, chain 2 of 3, further chain): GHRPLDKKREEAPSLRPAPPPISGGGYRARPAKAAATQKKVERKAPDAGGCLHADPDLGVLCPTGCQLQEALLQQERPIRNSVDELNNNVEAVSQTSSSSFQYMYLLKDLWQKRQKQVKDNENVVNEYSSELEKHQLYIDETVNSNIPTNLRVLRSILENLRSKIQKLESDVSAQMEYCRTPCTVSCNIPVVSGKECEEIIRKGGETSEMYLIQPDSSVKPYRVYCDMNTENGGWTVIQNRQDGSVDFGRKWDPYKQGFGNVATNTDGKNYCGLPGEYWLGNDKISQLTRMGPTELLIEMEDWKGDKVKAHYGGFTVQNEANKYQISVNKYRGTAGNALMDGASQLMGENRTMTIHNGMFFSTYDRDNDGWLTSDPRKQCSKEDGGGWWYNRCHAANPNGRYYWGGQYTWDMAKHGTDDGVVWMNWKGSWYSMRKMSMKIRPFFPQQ
Sequence of UniProt P02671 (P02679 other isoform, or with tags, fused parts or gaps, chain 3 of 3, further chain): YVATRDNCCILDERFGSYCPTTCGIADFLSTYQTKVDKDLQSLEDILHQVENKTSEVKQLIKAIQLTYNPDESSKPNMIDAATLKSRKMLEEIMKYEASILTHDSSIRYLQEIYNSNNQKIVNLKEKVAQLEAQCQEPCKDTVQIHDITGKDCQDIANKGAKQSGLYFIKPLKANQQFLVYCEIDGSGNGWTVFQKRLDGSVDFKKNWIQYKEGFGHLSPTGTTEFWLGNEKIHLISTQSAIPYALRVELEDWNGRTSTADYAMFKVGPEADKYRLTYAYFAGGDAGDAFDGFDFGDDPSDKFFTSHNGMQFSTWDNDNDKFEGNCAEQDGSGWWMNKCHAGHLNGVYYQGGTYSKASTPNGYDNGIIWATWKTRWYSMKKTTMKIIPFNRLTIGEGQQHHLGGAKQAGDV

| Substance | K m of overall fibrin breakdown by plasmin (clot lysis time by turbidity against fibrinogen 0 to 5 µM, batroxobin clots, 5 nM active plasmin) (human fibrin (human)) [µM] | K m of overall fibrin breakdown by plasmin (clot lysis time by turbidity against fibrinogen 0 to 5 µM, batroxobin clots, 5 nM active plasmin) (porcine fibrin (porcine)) [µM] |
| --- | --- | --- |
| human plasmin (from UniProt P00747 20-580) (enzyme) | 1.1 | 1.3 |
| porcine plasmin (from UniProt P06867 20-809; P06867 20-809) (enzyme) | 3.1 | 4.9 |
